Patent publication US20250270339A1

B1: TFR.15.WH8.1 2+2 anti-TfR bispecific antibody (bispecific antibody, part only; not given: isotype IgG backbone and linker, not shown: another chain or arm of the molecule; a dimerising Fc or GST; large carriers; small tags and cut ends)
scFv: QVQLVQSGAEVKKPGASVKVSCKASGYTFTSYYMHWVRQAPGQGLEWMGNIYPGSGSSNYAQKFQGRVTMTRDTSTSTVYMELSSLRSEDTAVYYCTRSSYYGNFDTMDNWGQGTTVTVSSGGSEGKSSGSGSESKSTGGSEIVLTQSPATLSLSPGERATLSCRASSSIRYMNWYQQKPGQAPRRLIYDTSNRATGIPARFSGSGSGTDFTLTISSLEPEDFAVYYCHQRSSYPWTFGGGTKVEIK
B2: TFR.15.WH8.1.26H 2+2 anti-TfR bispecific antibody (bispecific antibody, part only; not given: isotype IgG backbone and linker, not shown: another chain or arm of the molecule; a dimerising Fc or GST; large carriers; small tags and cut ends)
scFv: QVQLVQSGAEVKKPGASVKVSCKASGYTFTSYYMHWVRQAPGQGLEWMGNIYPGSGSSNYAQKFQGRVTMTRDTSTSTVYMELSSLRSEDTAVYYCTRSSYHGNFDTMDNWGQGTTVTVSSGGSEGKSSGSGSESKSTGGSEIVLTQSPATLSLSPGERATLSCRASSSIRYMNWYQQKPGQAPRRLIYDTSNRATGIPARFSGSGSGTDFTLTISSLEPEDFAVYYCHQRSSYPWTFGGGTKVEIK
B3: TFR.15.WH8.1.42Q 2+2 anti-TfR bispecific antibody (bispecific antibody, part only; not given: isotype IgG backbone and linker, not shown: another chain or arm of the molecule; a dimerising Fc or GST; large carriers; small tags and cut ends)
scFv: QVQLVQSGAEVKKPGASVKVSCKASGYTFTSYYMHWVRQAPGQGLEWMGNIYPGSGSSNYAQKFQGRVTMTRDTSTSTVYMELSSLRSEDTAVYYCTRSSYYGNFDTMDNWGQGTTVTVSSGGSEGKSSGSGSESKSTGGSEIVLTQSPATLSLSPGERATLSCRASSSIRQMNWYQQKPGQAPRRLIYDTSNRATGIPARFSGSGSGTDFTLTISSLEPEDFAVYYCHQRSSYPWTFGGGTKVEIK
B4: TFR.15.WH8.1.24H 2+2 anti-TfR bispecific antibody (bispecific antibody, part only; not given: isotype IgG backbone and linker, not shown: another chain or arm of the molecule; a dimerising Fc or GST; large carriers; small tags and cut ends)
scFv: QVQLVQSGAEVKKPGASVKVSCKASGYTFTSYYMHWVRQAPGQGLEWMGNIYPGSGSSNYAQKFQGRVTMTRDTSTSTVYMELSSLRSEDTAVYYCTRSHYYGNFDTMDNWGQGTTVTVSSGGSEGKSSGSGSESKSTGGSEIVLTQSPATLSLSPGERATLSCRASSSIRYMNWYQQKPGQAPRRLIYDTSNRATGIPARFSGSGSGTDFTLTISSLEPEDFAVYYCHQRSSYPWTFGGGTKVEIK
B5: TFR.15.WH8.1.42S 2+2 anti-TfR bispecific antibody (bispecific antibody, part only; not given: isotype IgG backbone and linker, not shown: another chain or arm of the molecule; a dimerising Fc or GST; large carriers; small tags and cut ends)
scFv: QVQLVQSGAEVKKPGASVKVSCKASGYTFTSYYMHWVRQAPGQGLEWMGNIYPGSGSSNYAQKFQGRVTMTRDTSTSTVYMELSSLRSEDTAVYYCTRSSYYGNFDTMDNWGQGTTVTVSSGGSEGKSSGSGSESKSTGGSEIVLTQSPATLSLSPGERATLSCRASSSIRSMNWYQQKPGQAPRRLIYDTSNRATGIPARFSGSGSGTDFTLTISSLEPEDFAVYYCHQRSSYPWTFGGGTKVEIK
B6: TFR.15.WH8.1.42A 2+2 anti-TfR bispecific antibody (bispecific antibody, part only; not given: isotype IgG backbone and linker, not shown: another chain or arm of the molecule; a dimerising Fc or GST; large carriers; small tags and cut ends)
scFv: QVQLVQSGAEVKKPGASVKVSCKASGYTFTSYYMHWVRQAPGQGLEWMGNIYPGSGSSNYAQKFQGRVTMTRDTSTSTVYMELSSLRSEDTAVYYCTRSSYYGNFDTMDNWGQGTTVTVSSGGSEGKSSGSGSESKSTGGSEIVLTQSPATLSLSPGERATLSCRASSSIRAMNWYQQKPGQAPRRLIYDTSNRATGIPARFSGSGSGTDFTLTISSLEPEDFAVYYCHQRSSYPWTFGGGTKVEIK
B7: TFR.15.WH8.1.24N 2+2 anti-TfR bispecific antibody (bispecific antibody, part only; not given: isotype IgG backbone and linker, not shown: another chain or arm of the molecule; a dimerising Fc or GST; large carriers; small tags and cut ends)
scFv: QVQLVQSGAEVKKPGASVKVSCKASGYTFTSYYMHWVRQAPGQGLEWMGNIYPGSGSSNYAQKFQGRVTMTRDTSTSTVYMELSSLRSEDTAVYYCTRSNYYGNFDTMDNWGQGTTVTVSSGGSEGKSSGSGSESKSTGGSEIVLTQSPATLSLSPGERATLSCRASSSIRYMNWYQQKPGQAPRRLIYDTSNRATGIPARFSGSGSGTDFTLTISSLEPEDFAVYYCHQRSSYPWTFGGGTKVEIK
B8: TFR.15.WH8.1.42A.L1 2+2 anti-TfR bispecific antibody (bispecific antibody, part only; not given: isotype IgG backbone and linker, not shown: another chain or arm of the molecule; a dimerising Fc or GST; large carriers; small tags and cut ends)
scFv: QVQLVQSGAEVKKPGASVKVSCKASGYTFTSYYMHWVRQAPGQGLEWMGNIYPGSGSSNYAQKFQGRVTMTRDTSTSTVYMELSSLRSEDTAVYYCTRSSYYGNFDTMDNWGQGTTVTVSSSPNSASHSGSAPQTSSAPGSQEIVLTQSPATLSLSPGERATLSCRASSSIRAMNWYQQKPGQAPRRLIYDTSNRATGIPARFSGSGSGTDFTLTISSLEPEDFAVYYCHQRSSYPWTFGGGTKVEIK
B9: TFR.15.WH8.1.42A.3x(G4S) 2+2 anti-TfR bispecific antibody (bispecific antibody, part only; not given: isotype IgG backbone and linker, not shown: another chain or arm of the molecule; a dimerising Fc or GST; large carriers; small tags and cut ends)
scFv: QVQLVQSGAEVKKPGASVKVSCKASGYTFTSYYMHWVRQAPGQGLEWMGNIYPGSGSSNYAQKFQGRVTMTRDTSTSTVYMELSSLRSEDTAVYYCTRSSYYGNFDTMDNWGQGTTVTVSSGGGGSGGGGSGGGGSEIVLTQSPATLSLSPGERATLSCRASSSIRAMNWYQQKPGQAPRRLIYDTSNRATGIPARFSGSGSGTDFTLTISSLEPEDFAVYYCHQRSSYPWTFGGGTKVEIK
B10: TFR.15.WH8.1.42A.LH 2+2 anti-TfR bispecific antibody (bispecific antibody, part only; not given: isotype IgG backbone and linker, not shown: another chain or arm of the molecule; a dimerising Fc or GST; large carriers; small tags and cut ends)
scFv: EIVLTQSPATLSLSPGERATLSCRASSSIRAMNWYQQKPGQAPRRLIYDTSNRATGIPARFSGSGSGTDFTLTISSLEPEDFAVYYCHQRSSYPWTFGGGTKVEIKGGSEGKSSGSGSESKSTGGSQVQLVQSGAEVKKPGASVKVSCKASGYTFTSYYMHWVRQAPGQGLEWMGNIYPGSGSSNYAQKFQGRVTMTRDTSTSTVYMELSSLRSEDTAVYYCTRSSYYGNFDTMDNWGQGTTVTVSS

Assays:
[1] = target: Cyno TfR apical permuted N-term Avi-His (cynomolgus); assay: SPR (Carterra LSA), 2+2 captured
[2] = target: huTfR Apical Domain-Avi-His (human); assay: SPR (Carterra LSA), 2+2 captured
Chain of huTfR Apical Domain-Avi-His (human) (chain, as listed by the source limits assumed): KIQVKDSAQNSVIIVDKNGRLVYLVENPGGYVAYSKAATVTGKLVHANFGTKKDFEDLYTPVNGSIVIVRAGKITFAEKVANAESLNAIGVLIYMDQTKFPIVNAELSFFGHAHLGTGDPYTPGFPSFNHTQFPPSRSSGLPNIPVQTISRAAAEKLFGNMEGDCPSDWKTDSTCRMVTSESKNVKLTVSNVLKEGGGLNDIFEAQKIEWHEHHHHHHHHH

Chain of Cyno TfR apical permuted N-term Avi-His (cynomolgus) (chain, as listed by the source limits assumed): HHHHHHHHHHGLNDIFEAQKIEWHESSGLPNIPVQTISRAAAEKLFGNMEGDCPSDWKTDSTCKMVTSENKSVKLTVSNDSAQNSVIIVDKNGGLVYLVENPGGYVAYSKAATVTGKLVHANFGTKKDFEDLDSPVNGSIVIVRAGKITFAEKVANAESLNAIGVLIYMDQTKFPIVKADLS

| Binder | Kd [1] | Kd [2] |
| --- | --- | --- |
| B1 | 0.017 µM | 0.028 µM |
| B2 | 2.2 µM | 0.28 µM |
| B3 | 0.04 µM | 0.062 µM |
| B4 | 0.0026 µM | 0.0056 µM |
| B5 | 0.69 µM | 0.51 µM |
| B6 | 0.088 µM | 0.16 µM |
| B7 | 0.047 µM | 0.14 µM |
| B8 | 0.1 µM | 0.15 µM |
| B9 | 0.074 µM |  |
| B10 | 0.06 µM | 0.19 µM |
